According to PMC8565334, “The horizontal transfer of Pseudomonas aeruginosa PA14 ICE PAPI-1 is controlled by a transcriptional triad between TprA, NdpA2 and MvaT”:

B1: R3.3 (dsDNA)
DNA 1: TACTGTCTGACCTGAGTTCAACAAAGCATTCTA
DNA 2: TAGAATGCTTTGTTGAACTCAGGTCAGACAGTA
B2: R3.2 (tprA-BS) (dsDNA)
DNA 1: AGTATTTAAAGCTCAATTAGCACCCCGTACTGT
DNA 2: ACAGTACGGGGTGCTAATTGAGCTTTAAATACT
B3: R3.1 (dsDNA)
DNA 1: AATTTAGCCCAATAGTATTTAAAGCTCAATTAGCAC
DNA 2: GTGCTAATTGAGCTTTAAATACTATTGGGCTAAATT
B4: R3.4 (dsDNA)
DNA 1: ATTCTAAAACGATTAGAACTTCTATTTTATCCA
DNA 2: TGGATAAAATAGAAGTTCTAATCGTTTTAGAAT
B5: R4 (dsDNA)
DNA 1: TTTCTAACAACGATTCCCACCTGGCTCGCTTTAGGCGTAACATGAAAAACCTTCATCGCTCCTAATCCGTTTCCCTTACGCCTGCCTCGCTCACCCTCTG
DNA 2: CAGAGGGTGAGCGAGGCAGGCGTAAGGGAAACGGATTAGGAGCGATGAAGGTTTTTCATGTTACGCCTAAAGCGAGCCAGGTGGGAATCGTTGTTAGAAA
B6: R1 (dsDNA)
DNA 1: TTGCAGGGGTTTCGGAGAAAAAACCTGTGACCCAGAACTCTTTTTCCGTATATTTTAAAGCGAAGTCTTCAACAAGCCTTACCGAGAAAGGAAACAGGAT
DNA 2: ATCCTGTTTCCTTTCTCGGTAAGGCTTGTTGAAGACTTCGCTTTAAAATATACGGAAAAAGAGTTCTGGGTCACAGGTTTTTTCTCCGAAACCCCTGCAA
B7: R2 (dsDNA)
DNA 1: AGTACTGAATCCAGCCACTACCAAGGGGTTAACTGATGCCAGGCTTGGAAATACGGAGCCTTTCCAAGCGACTAAAACAAAGAAGAAAGCTCCCCAGAAA
DNA 2: TTTCTGGGGAGCTTTCTTCTTTGTTTTAGTCGCTTGGAAAGGCTCCGTATTTCCAAGCCTGGCATCAGTTAACCCCTTGGTAGTGGCTGGATTCAGTACT
B8: R3 (dsDNA)
DNA 1: AATTTAGCCCAATAGTATTTAAAGCTCAATTAGCACCCCGTACTGTCTGACCTGAGTTCAACAAAGCATTCTAAAACGATTAGAACTTCTATTTTATCCA
DNA 2: TGGATAAAATAGAAGTTCTAATCGTTTTAGAATGCTTTGTTGAACTCAGGTCAGACAGTACGGGGTGCTAATTGAGCTTTAAATACTATTGGGCTAAATT
B9: R5 (dsDNA)
DNA 1: CCTAGTCATCGAGAAATCCCCTCCCCTGTTGCCGAGTATTTCCTGCTGATGCGTGGCGGATGGCCTGCCACTGTGTGCCCCATCATCAAAGGGGGCCTCA
DNA 2: TGAGGCCCCCTTTGATGATGGGGCACACAGTGGCAGGCCATCCGCCACGCATCAGCAGGAAATACTCGGCAACAGGGGAGGGGATTTCTCGATGACTAGG

molecular target: T1, TprA (Pseudomonas aeruginosa PA14, UniProt A0A0H2ZFZ8 1-84); experiment: EMSA; conditions: protein: recombinant; tags: His-tag removed by TEV; chain copies: 2; label: 5'-Cy5 on strand 1; blunt

| Binder | binding result |
| --- | --- |
| B1 | no binding |
| B2 | binds |
| B3 | no binding |
| B4 | no binding |

molecular target: T1, TprA; experiment: EMSA; 1 uM TprA; conditions: protein: recombinant; tags: His-tag removed by TEV; chain copies: 2; label: 5'-Cy5 on strand 1; blunt

| Binder | binding result |
| --- | --- |
| B5 | no binding |
| B6 | no binding |
| B7 | no binding |
| B8 | binds |
| B9 | no binding |
